From the RNAGym collection of RNA variant scans (doi:10.1073/pnas.2313332121)

B1: TPR t1 (parent)
chain: GACCAAUCUGCCCUCAGAGCUCGAGAACAUCUUCGGAUGCAGAGGAGGCAGGCUUCGGUGGCGCGAUAGCGCCAACGUCCUCAACCUCCAAUGCAUCCCACCACAUGAUGAUGCCUGAAGAGCCUUGGUUUUUUG

Variants of: B1
Assay: polymerase ribozyme fitness, log enrichment relative to wild type (log ratio); higher = more active; in vitro selection for triplet polymerase activity
In short: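 One round of in vitro selection, in triplicate, was applied to PCR-built, transcribed mutant libraries of each subunit of a heterodimeric triplet polymerase ribozyme. The steps were annealing with a biotinylated primer, partner subunit and triplets, incubation frozen at −7 °C, gel excision of extended constructs, streptavidin-bead capture and RT-PCR. Fitness is the logarithm, base 2, of genotype enrichment over wild-type enrichment from inverse-variance-weighted replicate averages of Illumina-sequenced inputs and outputs, keeping genotypes with ≥10 input reads and ≥1 read per output.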

| Variant | polymerase ribozyme fitness (log ratio) |
| --- | --- |
| A6C G47C G71U | -2.53 |
| U32C C72A | 0.0616 |
| A84U U112A | 0.956 |
| A29G C53G C62U U106A G117C | -4.22 |
| A2G U87G A95U G110A | -0.979 |
| G10U U87G C88G C98U G113A | -1.98 |
| G69C A121G | 0.734 |
| G58U | -0.329 |
| U32A G45A A75U C88U U96C | -5.82 |
| C8U G51A A121C U131G | -0.214 |
| A5G G10A C72U A91U | -2.06 |
| C115U G120A U131A | -2.07 |
| C49U C115U | -1.16 |
| C34A U59C G127C | -4.66 |
| U32C U78A A84G G122A | -2 |
| A50U U92G | -3.4 |
| G45A C89G U116G | -4.12 |
| G47C U112A | -0.857 |
| U9G C70A C85U A90G C102A | -4.92 |
| A37U G51A A100C U112A | -5.37 |
| A41U G57U C82U | -1.52 |

| Variant | polymerase ribozyme fitness (log ratio) |
| --- | --- |
| U78C C94A | -0.785 |
| A5G G10A C15A G23C U32G G61C A90C | -6.73 |
| G10U A16U C72U C79A C114G C123A U130G | -6.07 |
| U7A G10A G52A C115U | -1.15 |
| G58C C123G | 1.75 |
| A84U C101A U116G A121U | -0.796 |
| G52U C79A | -1.05 |
| A29U C31G C97G U112A U129G | -6.42 |
| U81G A84C U116A G120C | -3.83 |
| G60A C86A U131C | -1.16 |
| G57U G69A | -2.73 |
| C13G G63C U87C | -3.11 |
| U33G G36C | -7.66 |
| C73G A95C | -2.83 |
| U54A U59A G60C U106A C124A G128U | -0.601 |
| A29C U55C C72U C115A U133A | -2.23 |
| C34G C53A | -5.71 |
| C40G U133G | -0.607 |
| A18G C72U U81A A91U U96C G120A G128A | -6.28 |
| A2C C114A | -3.32 |
| G48C C53G C64G G65A U109G | -6.8 |

| Variant | polymerase ribozyme fitness (log ratio) |
| --- | --- |
| C3G C13U G63U A111C | -2.54 |
| C28U G44U C56A | -4.15 |
| C56U G69A G113A | -5.38 |
| A74C C102U | -1.76 |
| G44A C70U A83G U96C G110U | -6.41 |
| A5C C40U | -1.31 |
| C11A C72A A91G C101U G113C U132C | -4.14 |
| U9G G93A G128A U129G | -1.96 |
| U9A G117C | -1.79 |
| G45A C70G G110A | -6.64 |
| G52U U54G | -1.03 |
| G36C C49U | -1.18 |
| C70G G113A | -3.02 |
| U78C C104A G113U | -4.71 |
| G10U A26U | -2.52 |
| A43C C72U A103U U125A | -6.47 |
| A68G U96G | -3.68 |
| U81A C88A C101U | -1.46 |
| C12G A16U C72U G93U U112A | -3.35 |
| C70G C80U | -2.51 |
| G71U C94G | -1.13 |

| Variant | polymerase ribozyme fitness (log ratio) |
| --- | --- |
| C12G A29U U55G C62U C102U G117A | -4.8 |
| C88U C114G | -3.05 |
| C31G C56U G61A G69A U87G C123G | -7.19 |
| A46C C86U C88A A121C U130C | 0.304 |
| C31G A50U G60C G110C | -6.92 |
| A50G G63U | -1.73 |
| U9A G42A A43G G47U C56U | -3.28 |
| C28G A37G G48A C104U C123A | -2.85 |
| C12U A18G G19C A37U A118U A121G | -1.65 |
| G44C G45U | -2.11 |
| C64U G107U | -5.43 |
| U54C C88U C94A C101U | -0.155 |
| G63A U130G | -0.913 |
| C11G C85G G117A | -1.6 |
| C13U U21C A27U A37U A50G C56A G69U A111C | -4.81 |
| C12G A37U G61C | -1.78 |
| G48A C62G | -2.29 |
| C11U C49G G61U A90C | -2.04 |
| U129C U131G | 0.298 |
| C97A G120A | -3.9 |
| U9G A46G C73U A75G U96A U106G | -3.78 |
